Assay results taken from IntAct's records for PubMed 16098514.

B1: GTPase RhebL1 (Homo sapiens), Q8TAI7 (parent)
chain: MPLVRYRKVVILGYRCVGKTSLAHQFVEGEFSEGYDPTVENTYSKIVTLGKDEFHLHLVDTAGQDEYSILPYSFIIGVHGYVLVYSVTSLHSFQVIESLYQKLHEGHGKTRVPVVLVGNKADLSPEREVQAVEGKKLAESWGATFMESSARENQLTQGIFTKVIQEIARVENSYGQERRCHLM

Variants of: B1
Details: with mtor_human MTOR

Variant	effect of a mutation on the interaction
N41A	disrupting interaction
